Data on one substance can be found in US20250313621A1.

For orientation: EC50 means the concentration that produces a half-maximal response.

Assay [1] addresses Wildtype human PAR 1 (human) (UniProt P25116). Briefly: cell-based or functional assay.
The target of assay [2] is Wildtype human PAR2 expressed on cells (human) (UniProt P55085). Briefly: cell-based or functional assay.
For assay [3], the target named is V5His-huPAR2 on Flp-In CHO cells (human) (UniProt P55085). Briefly: FACS titration on CHO_V5HIS-huPAR2 cells versus CHO parental cells (flat), RLU, axis Ab [nM].
Sequence of V5His-huPAR2 on Flp-In CHO cells (human) (P55085 37-397 limits assumed): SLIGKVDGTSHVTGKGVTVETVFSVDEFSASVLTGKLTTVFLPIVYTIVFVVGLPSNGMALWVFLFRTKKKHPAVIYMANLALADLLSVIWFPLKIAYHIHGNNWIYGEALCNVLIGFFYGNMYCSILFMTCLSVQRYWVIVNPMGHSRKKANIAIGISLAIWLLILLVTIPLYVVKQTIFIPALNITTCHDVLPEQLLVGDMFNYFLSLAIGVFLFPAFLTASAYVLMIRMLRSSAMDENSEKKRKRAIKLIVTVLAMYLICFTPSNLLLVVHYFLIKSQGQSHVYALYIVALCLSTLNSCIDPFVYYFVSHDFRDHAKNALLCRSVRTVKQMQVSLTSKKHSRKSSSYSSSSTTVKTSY

Sequence of Wildtype human PAR2 expressed on cells (human) (P55085 37-397 limits assumed): as above
Sequence of Wildtype human PAR 1 (human) (P25116 42-425 limits assumed): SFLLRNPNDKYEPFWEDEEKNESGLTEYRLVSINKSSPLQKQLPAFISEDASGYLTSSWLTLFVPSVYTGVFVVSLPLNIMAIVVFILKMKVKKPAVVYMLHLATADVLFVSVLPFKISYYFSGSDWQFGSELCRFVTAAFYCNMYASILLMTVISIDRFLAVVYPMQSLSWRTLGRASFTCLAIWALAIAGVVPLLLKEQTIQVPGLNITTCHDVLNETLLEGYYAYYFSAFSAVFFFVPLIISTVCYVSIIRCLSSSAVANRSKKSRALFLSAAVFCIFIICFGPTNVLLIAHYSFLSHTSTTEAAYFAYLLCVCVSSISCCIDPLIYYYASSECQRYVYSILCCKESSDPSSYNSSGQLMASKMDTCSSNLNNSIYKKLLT

Consider MAB3949 (antibody), for which, in assay [1], the Human PAR1 SFLLR IC50, IP-One was greater than 1000 nM and the SFLLR fold inhibition, human PAR1, IP-One was 0 fold. In assay [2], this substance displayed a % Max Inhibition, AP challenge, IP-One of 100% and a % Max Inhibition, Bovine Trypsin challenge, IP-One of 0%. Moreover, the 50% effective concentration (EC50) in assay [3] was 6.8 nM.
